According to the supplement of paper PMC10724198:
± gives the standard deviation of the averaged measurements.

What follows are sequences tested on Saccharomyces cerevisiae (assay: protein stability index of tFT-peptide fusion (C-terminal peptide) (PSI (0-1 scale)); higher = more stable (slower turnover)). Details: genetic background: wild type; temperature: 30 C.
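Note: PSI is a weighted mean of sequencing reads over stability bins, variants kept only with over 10 reads, mCherry proximal and sfGFP distal, peptide attached via GGGS linker.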

Sequence | protein stability index
VVSEQLDRGMRF | 0.694 ± 0.039
VVVRRSEVGGRV | 0.65 ± 0.095
VVWGAWGGWGCW | 0.726 ± 0.056
VVWSGWGCGGVR | 0.619 ± 0.015
VWAVGRATARER | 0.6969 ± 0.0025
VWAWGDGGGAVV | 0.728 ± 0.051
VWDGLAVAATCS | 0.597 ± 0.085
VWFEAGLGWFFL | 0.721 ± 0.047
VWFGAGSYSFLC | 0.5683 ± 0.0016
VWGGGLLVGAGW | 0.669 ± 0.035
VWRSTVRVSRAG | 0.763 ± 0.051
VWSWVDSFCRGG | 0.744 ± 0.042
VWVEVDGLLVVV | 0.534 ± 0.043
VWVQISGRLNWK | 0.709 ± 0.06
VWVVGADEDAVR | 0.698 ± 0.03
VYFFSSIFRCFV | 0.544 ± 0.048
VYFLWPRFVCDA | 0.585 ± 0.044
VYLRSMLSLNIR | 0.676 ± 0.051
VYPRNLPGSVPL | 0.666 ± 0.02
VYPRRLLPSRGL | 0.668 ± 0.098
VYQLTKNERVIK | 0.643 ± 0.1
VYRRGESRTHGD | 0.682 ± 0.018
VYSVDGGKTVLD | 0.669 ± 0.028

Sequence | protein stability index
VYTIHECADMLY | 0.712 ± 0.045
VYVLHNVMCSSD | 0.632 ± 0.051
VYYDSVVSLSGA | 0.661 ± 0.079
WAARPSATGDRC | 0.664 ± 0.042
WAAWGGGEAWGV | 0.698 ± 0.047
WAFYFPWSSSLM | 0.726 ± 0.036
WAGGANGEWGEW | 0.8097 ± 0.0021
WARGGRVDDGGG | 0.62 ± 0.057
WATPRPCQMVPS | 0.567 ± 0.038
WAVLLQGSRDLW | 0.788 ± 0.016
WCAGLATAIQLR | 0.636 ± 0.053
WCECGVWVGLWG | 0.732 ± 0.059
WCGLRVGGGGMW | 0.74 ± 0.017
WCGNGFVKKGGL | 0.655 ± 0.007
WCKLLGGSVFGE | 0.671 ± 0.023
WCLRVRASGRGG | 0.786 ± 0.3
WCRGGGWPVTGL | 0.7 ± 0.042
WCVCGVWVGLWG | 0.71 ± 0.076
WCVLLMALFRWW | 0.625 ± 0.025
WDLPKTLCSKYT | 0.727 ± 0.013
WDQLPVNMVYQC | 0.571
WDSLGGCRARLS | 0.7 ± 0.013
WFCRFTGGRRLL | 0.671 ± 0.044

Sequence | protein stability index
WFDCGSACFGYL | 0.782 ± 0.056
WFGPPAPRKVSP | 0.852 ± 0.042
WFGSPRCVGGQL | 0.703 ± 0.03
WFQRGKIPIHKV | 0.667 ± 0.074
WFRMTFLSPLHD | 0.797 ± 0.044
WGGGGGKEAVVR | 0.6554 ± 0.0042
WGGGGGRGGMGG | 0.693 ± 0.055
WGGGGGVWGHVV | 0.603 ± 0.034
WGGSGRVWVKLG | 0.696 ± 0.055
WGGSSPHRTEPR | 0.666 ± 0.058
WGGWGLRVSCGT | 0.681 ± 0.052
WGLGFRLVFWSV | 0.5289 ± 0.0022
WGPCCSTLLFFV | 0.423 ± 0.12
WGRFGYGPAVVG | 0.735 ± 0.063
WGRRGGVARGRA | 0.787 ± 0.1
WGRRVSPVRDGR | 0.671 ± 0.032
WGSISVEGRVAG | 0.715 ± 0.015
WGTGGRLGVGHV | 0.697 ± 0.056
WGVGGVLEVLLG | 0.522 ± 0.022
WGVGRDVVLWGA | 0.895 ± 0.14
WGVSARDPVFKE | 0.654 ± 0.018
WGVSGAGPHLLL | 0.74 ± 0.038
WGWGGGRGGMGG | 0.716 ± 0.022

Sequence | protein stability index
WGWPHQRDGFLG | 0.66 ± 0.007
WHWDGVGTLVIW | 0.605 ± 0.14
WLCLARGRLGLH | 0.583 ± 0.011
WLESHVSRGLTT | 0.64 ± 0.021
WLGRGGACGVRW | 0.696 ± 0.05
WLGTIVCGRGWW | 0.7003 ± 0.006
WLLGLCLFGFHR | 0.577 ± 0.013
WLLKGTVTLMMW | 0.5687 ± 0.0031
WLPPPPYSPFSL | 0.724 ± 0.059
WLREDCLLSRGR | 0.7 ± 0.0016
WLRSLLKENLVR | 0.5422 ± 0.0016
WLRVLFPSSPGD | 0.607 ± 0.04
WLSAGAWGAVIL | 0.788 ± 0.034
WPLISPFSKHRW | 0.696 ± 0.055
WPLVLSYRKESA | 0.803 ± 0.22
WQGARLSSREGH | 0.694 ± 0.038
WQLKGNGGREAL | 0.671 ± 0.034
WQNKKDNGKIRG | 0.724 ± 0.11
WRCYCFLGLDEG | 0.653 ± 0.029
WRPLIPPSLPPL | 0.6977 ± 0.0069
WRQRVWRGGWKG | 0.594 ± 0.031
WSGGWAGGMLNE | 0.641 ± 0.027
WSIGGKSFVGIA | 0.676 ± 0.031

Sequence | protein stability index
WSISKSTWGPIG | 0.673 ± 0.023
WSQGAIDRLDLS | 0.641 ± 0.13
WSRRGGWEKYGV | 0.676 ± 0.032
WSSSVGIKGAWF | 0.707 ± 0.022
WSVGRVGGCGAR | 0.704 ± 0.052
WTCMNRRMREED | 0.739 ± 0.072
WTNRVPLYALPT | 0.657 ± 0.0081
WVGAGGGSGYGR | 0.677 ± 0.018
WVGKCLCRGLCD | 0.668 ± 0.0096
WVMREIVFGSLY | 0.698 ± 0.017
WVNWRWRAVVPG | 0.6188 ± 0.0025
WVSSRSSVVARG | 0.653 ± 0.043
WVTQHAMEVGRI | 0.712 ± 0.084
WVVGGVRGVWGA | 0.729 ± 0.011
WWAERCLGGGRG | 0.744 ± 0.018
WWAGGCGGERGG | 0.686 ± 0.018
WWGAKLDGKVSE | 0.813 ± 0.0089
WWGCVGRVGVEG | 0.726 ± 0.1
WWGGGVRGGMGG | 0.7578 ± 0.002
WWGRWGASVGRG | 0.686 ± 0.033
WWRGSVWHREVA | 0.701 ± 0.0088
WYGPKLVGGSIV | 0.722 ± 0.12
WYITVMSHFNET | 0.753 ± 0.009

Sequence | protein stability index
WYWGGWMRGCGW | 0.75 ± 0.048
YAGPCRRHSGGC | 0.679 ± 0.082
YALLLPRSVFQF | 0.517 ± 0.038
YASDGNSRLRAN | 0.691 ± 0.02
YASKQNPKPPSP | 0.682 ± 0.039
YASLSGSRYRPG | 0.62 ± 0.051
YCGGWCGGWEIG | 0.709 ± 0.0075
YCGGWWGGWEIG | 0.719 ± 0.0036
YCHTSISPNSHL | 0.787 ± 0.096
YCLLGHIYKPLS | 0.679 ± 0.011
YCRVRYKKSVLR | 0.694 ± 0.015
YCTVDECWGRWH | 0.709 ± 0.08
YCWGYVVARPSV | 0.695 ± 0.017
YEMTGHVVTHEI | 0.69 ± 0.075
YFGSHLILSRAT | 0.665 ± 0.11
YFNNVFQVAGGF | 0.639 ± 0.025
YGAGLRIGQFRC | 0.747 ± 0.1
YGCPSSSSVLDG | 0.812 ± 0.11
YGGRQRCRGRVE | 0.825 ± 0.16
YGKENGNRNTGR | 0.621 ± 0.014
YGRANATHLGRR | 0.661 ± 0.005
YHARPQALPSRP | 0.658 ± 0.055
YHMNSSLLCLLW | 0.631 ± 0.032

Sequence | protein stability index
YIGGMRSHYASP | 0.734 ± 0.12
YIRSKPASDQFA | 0.7093 ± 0.00062
YIVPAGGGLVSG | 0.642 ± 0.096
YKMTFVRGQGYE | 0.69 ± 0.041
YKNDNDKCIQMR | 0.678 ± 0.011
YKPLKNKDEEMD | 0.6127 ± 0.00088
YLAYHVAAPGPV | 0.686 ± 0.015
YLCEATFLLTWL | 0.618 ± 0.024
YLGCSLAMAFSL | 0.6278 ± 0.0054
YLLLAFQRPTPG | 0.694 ± 0.019
YLLPSTPPPRIP | 0.6912 ± 0.0048
YLQLALFHSIPH | 0.738 ± 0.053
YLSLPTSISLSS | 0.693 ± 0.016
YPLPFRHASIPF | 0.606 ± 0.096
YPLPPLFLPLLL | 0.675 ± 0.046
YPPLTNNQINES | 0.69 ± 0.015
YPPPPPLAPPRP | 0.747 ± 0.14
YPPREEPREDLA | 0.656 ± 0.026
YPSTPPPPPHPA | 0.687 ± 0.1
YPTTSWNPARSV | 0.692 ± 0.12
YQSLVSIDLGFS | 0.745 ± 0.034
YRLAPGCSFHPT | 0.666 ± 0.028
